# According to patent US20100158926A1:
# Values joined by “and” are separate entries in the source; they are usually repeats but may differ in a detail not shown here. Equal entries are not always repeated.
# Tests used:
# [1] = target: human ErbB2, full length, on cells (B300.19/hErbB2 clone #44; MCF7; BT474; SKBR3) (human)
# [2] = target: human ErbB2, full length, on cells (B300.19/hErbB2 clone #44; MCF7; BT474; SKBR3) (human); remark: listed apart in the source
# [3] = target: human ErbB2, full length, on cells (B300.19/hErbB2 clone #44; MCF7; BT474; SKBR3) (human); remark: listed apart in the source
# [4] = target: human ErbB2 ECD-myc/His fusion protein (human); experiment: SPR, high resolution Biacore T100; mAb captured on goat anti-human IgG, hHer-2(ECD)cMyc injected; 1:1 fit
# [5] = target: human ErbB2, full length, on cells (B300.19/hErbB2 clone #44; MCF7; BT474; SKBR3) (human); remark: listed apart in the source
# [6] = target: human ErbB2, full length, on cells (B300.19/hErbB2 clone #44; MCF7; BT474; SKBR3) (human); remark: listed apart in the source
# [7] = target: human ErbB2 ECD-myc/His fusion protein (human); experiment: SPR, medium resolution Biacore 2000; mAb captured on goat anti-human IgG, ErbB2(ECD)-cMyc/His injected; 1:1 fit
# [8] = target: human ErbB2, full length, on cells (B300.19/hErbB2 clone #44; MCF7; BT474; SKBR3) (human); remark: listed apart in the source
# [9] = target: human ErbB2 ECD-myc/His fusion protein (human); experiment: limited antigen ELISA, 31 ng/ml antigen coated, supernatant 1:25, OD 450 nm
"N1 % Inhibition @40 µg/ml, BT474 cell proliferation [1] [%]","N1 EC50 (ng/ml), inhibition of BT474 cell proliferation [1] [ng/mL]","N2 EC50 (ng/ml), inhibition of BT474 cell proliferation [1] [ng/mL]","% inhibition @36 µg/ml, SKBR3 cell proliferation [2] [%]","EC50 (ng/ml), inhibition of SKBR3 cell proliferation [2] [ng/mL]","EC50 (ng/ml) n1, inhibition of Heregulin-induced ErbB2 phosphorylation in MCF7 cells [3] [ng/mL]","EC50 (ng/ml) n2, inhibition of Heregulin-induced ErbB2 phosphorylation in MCF7 cells [3] [ng/mL]",Kd [4] [nM],"% Inhibition @10 µg/ml (n1), ErbB2 phosphorylation in BT474 cells at 48 hours [5] [%]","% Inhibition @10 µg/ml, Heregulin-induced MCF7 cell proliferation [6] [%]","EC50 (ng/ml), inhibition of Heregulin-induced MCF7 cell proliferation [6] [ng/mL]",Kd [7] [nM],koff [7] [s⁻¹],kon [7] [M⁻¹ s⁻¹],LA at 31 ng/ml [9],Molecule,other results
-2,> 40000,> 40000,2,> 36000,–,–,–,–,–,–,–,–,–,–,hIgG1 control antibody,–
-9,> 40000,4750,–,> 36000,43.6,14.6,3.2,10,90,404,–,–,–,–,chimeric anti-hErbB2 antibody 2C4,–
–,–,–,–,–,> 10000,> 10000,–,5,–,> 10000,–,–,–,–,Herceptin® (antibody),–
35,131,66.3,43,41.7,28.8,34,11.6,37,98,2830,2.6,0.000273,103000,–,"monoclonal antibody 1.96 (antibody, V domains shown) VH: EVQLVESGGGLVQPGGSLRLSCAASGFTFSSYWMSWVRQAPGKGLEWVANIKQDGSEKYYVDSVKGRFTISRDNAKNSLYLQMNSLRAEDTAVYYCARWGVFGSGSYYIPFDYWGQGTLVTVSS VL: DIQMTQSPSSLSASVGDRVTITCRASHSITRYINWYQQKPGKAPNLLIYAASSLQSGVPSRFSGSGSGTDFTLTISSPQPEDFATYYCQQSYSSPPITFGQGTRLEIK",24 hr pTyr inhibition % (line 1*96) [8]: 99%; 24 hr pTyr inhibition % (line 1*99) [8]: 99%; 24 hr pTyr inhibition % (line 1*104) [8]: 73%; 24 hr pTyr inhibition % (line 1*107) [8]: 82%; 24 hr pTyr inhibition % (line 1*128) [8]: 98%; koff [4]: 0.000194 s⁻¹; kon [4]: 16800 M⁻¹ s⁻¹
40,85.3,12.8,49,25.2,15.5,17.4,–,21,100,770,3.6,0.000344,95000,2.84 OD and 1.77 OD,"monoclonal antibody 1.20 (antibody, V domains shown) VH: QLQLQESGPGLVKPSETLSLTCTVSGGSISSSNYYWGWIRQPPGKGLEWIGTIYYTGSTYYNPSLKSRVTISVDTSKNQFSLKLSSVTAADTAVYYCARHHWVFDYWGQGTLVTVSS VL: DIQMTQSPSSVSASVGDRVTITCRASQGISSWLAWYQQKPGKAPKLLIYAASSLQSGVPSRFSGSGSGTDFTLTISSLQPEDFATYYCQRTNSFPRTFGQGTKVEIK",24 hr pTyr inhibition % (line 1*19) [8]: 97%; 24 hr pTyr inhibition % (line 1*20) [8]: 96%
29,156,42.3,41,68.9,46.9,26.3,13.4,37,89,479,2,0.000236,115000,2.57 OD,"monoclonal antibody 1.39 (antibody, V domains shown) VH: QLQLQESGPGLVKPSETLSLTCTVSGGSISSSTYYWGWIRQPPGKGLEWIGTIYYSGSTYYNPSLKSRVTISVDTSKNQFSLKLNSVTAADTAVYYCARHHWVFDYWGQGTLVTVSS VL: EIVLTQSPDFLSVTPKEKVTITCRASQIIGSSLHWYQQKPDQSPKLLIKYASQSFSGVPSRFSGSGSGTDFTLTLNSLEAEDAATYYCHQSTILPWTFGQGTKVEIK",24 hr pTyr inhibition % (line 1*39) [8]: 99%; koff [4]: 0.000214 s⁻¹; kon [4]: 16000 M⁻¹ s⁻¹
35,169,91.1,54,61.3,39.9,33.7,–,37,95,2040,2.9,0.000301,104000,3.54 OD,"monoclonal antibody 1.100.1 (antibody, V domains shown) VH: QLQLQESGPGLVKPSETLSLTCTVSGGFISSSSYYWGWIRQPPGKGLEWIGTIYYSGTTYYNSSLKSRVTISVDTSQNQFSLKLSSVTAADTAVYYCARHHWVFDYWGQGTLVTVSS VL: EVVLTQSPDFQSVTPKEKITITCRASQIIGTSLHWYQKKPDQSPKLLIKYASQSFSGVPSRFSGSGSGTEFTLTINSLEAEDTATYYCHQSTNLPWTFGQGTKVEIK",24 hr pTyr inhibition % (line 1*100) [8]: 95%
38,136,63,52,35.7,33.7,22.9,–,37,96,640,2.5,0.000256,102000,3.99 OD,"monoclonal antibody 1.14.1 (antibody, V domains shown) VH: QLQLQESGPGLVKPSETLSLTCTVSGDSISSFIYYWGWIRQPPGKGLEWIGTIYYSGSTYYNPSLKSRVTISVDTSKNQFSLKLRSVTAADTAVYYCARHHWVFDYWGQGTQVTVSS VL: DIVLTQFPDFQSVTPKEKVTITCRASQVIGSSLHWYQQKPDQSPKLLIKYASQSFSGVPSRFSGSGSGTDFTLTINSLEVEDAATYYCHQSTILPWTFGQGTKVEVK",24 hr pTyr inhibition % (line 1*14) [8]: 100%
–,–,–,–,–,> 10000,> 10000,–,–,53,10000,–,–,–,3.2 OD and 3.57 OD,"monoclonal antibody 1.43 (antibody, V domains shown) VH: QVQLVESGGGLVKPGGSLRLSCAASGFTFSDYYMNWIRQAPGKGLEWVSYISSSGSIIYYADSVKGRFTISRDNAKNSLYLQMNSLRAEDTAVYYCAREGRIAARGMDVWGQGTTVTVSS VL: DIQMTQSPSSLSASVGDRVSITCRPSQSFSRYINWYQQKPGKAPKLLIHAASSLVGGVPSRFSGSGSGTDFTLTISSLQPEDFATYYCQQTYSNPPITFGQGTRLEMK",24 hr pTyr inhibition % (line 1*41) [8]: 86%; 24 hr pTyr inhibition % (line 1*43) [8]: 82%
34,38.1,28.2,46,26.3,4.2,10.8,–,24,94,415,3,0.000302,100000,3.03 OD,"monoclonal antibody 1.18.1 (antibody, V domains shown) VH: QVQLVESGGGVVQPGRSLRLSCAASGFTFSSYGMHWVRQAPGKGLEWVAVIWYDRSNKYYADSVKGRFTISRDNSKNTLYLQMDSLRAEDTAVYYCAGGRSRGAFDYWGQGTLVTVSS VL: DIQMTQSPSSLSASVGDRVTITCRASQGIRNYLAWFQQKPGKAPKSLIYAASSLQSGVPSTFSGSGSGTHFTLTISSLQPEDFASYFCQQYEIYPLTFGGGTKVEIK",24 hr pTyr inhibition % (line 1*18) [8]: 96%
